Measured values from paper PMC6171183 (2018).

Biological target: T1, GST-LjBAK1cyt (Lotus japonicus, UniProt A0A2H4NR37)
T1 chain: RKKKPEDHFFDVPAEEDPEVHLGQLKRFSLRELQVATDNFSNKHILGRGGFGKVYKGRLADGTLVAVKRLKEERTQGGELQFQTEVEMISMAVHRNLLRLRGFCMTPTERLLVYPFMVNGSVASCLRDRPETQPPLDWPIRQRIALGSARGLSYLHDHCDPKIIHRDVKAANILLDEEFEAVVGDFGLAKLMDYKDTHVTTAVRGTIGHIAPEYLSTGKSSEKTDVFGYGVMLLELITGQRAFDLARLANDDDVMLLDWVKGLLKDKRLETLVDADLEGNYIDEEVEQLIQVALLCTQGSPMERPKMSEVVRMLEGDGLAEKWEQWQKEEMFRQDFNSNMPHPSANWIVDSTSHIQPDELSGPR
Assay: GST pull-down

binding result: binds
B1: HIS-NFR5cyt (protein)
chain: RRKKALNRTASSAETADKLLSGVSGYVSKPNVYEIDEIMEATKDFSDECKVGESVYKANIEGRVVAVKKIKEGGANEELKILQKVNHGNLVKLMGVSSGYDGNCFLVYEYAENGSLAEWLFSKSSGTPNSLTWSQRISIAVDVAVGLQYMHEHTYPRIIHRDITTSNILLDSNFKAKIANFAMARTSTNPMMPKIDVFAFGVLLIELLTGRKAMTTKENGEVVMLWKDMWEIFDIEENREERIRKWMDPNLESFYHIDNALSLASLAVNCTADKSLSRPSMAEIVLSLSFLTQQSSNPTLERSLTSSGLDVEDDAHIVTSITAR
